From the nanobody polyreactivity screen of Harvey et al. (2022)

Assay: yeast display, Sf9 membrane polyspecificity reagent, FACS + sequencing; frameworks hold sequencing errors
Procedure, shortened: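 Nanobodies came from a synthetic yeast display library in Saccharomyces cerevisiae BJ5465, induced with galactose for 36–48 hours and stained for 1 hour at 4 °C with 10% biotinylated, detergent-solubilized Sf9 membrane reagent. Cells were enriched on streptavidin microbeads and then FACS-sorted, with low and high (top ~1%) gates set on anti-HA fluorescence for expression and streptavidin fluorescence for reagent binding. Each polyreactivity label reflects the gate a clone came from. Genes were amplified by colony PCR, sequenced by MiSeq 2 × 250 and filtered by CDR length.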

| Sequence | polyreactivity (PSR sort gate) |
| --- | --- |
| QVQLVESGGGLVQAGGSLRLSCAASGSNFRYYAMGWDRQAPGKERELVAAISYSGGTTYYADSVKGRFTISRDNAKNTVYLQMNSLKPEDTAVYYCAVPLIGVDGYAYDYWGQGTQVTVSS | low polyreactivity |
| QLQLVESGGGFVQAGGSLRLSCAASGSTFQIYTMGWYRQAPGKERELVAAITNGGGSTYYADSVKGRFTISRDKANNTVYLQMNSLKPEDTAVYYCAAEQRYPLIILYDYWGQGTQVTVSS | low polyreactivity |
| QVQLVESGGGLVQAGGSLRLSCAASGRTFYSNAMGWYRQAPGKERELVAAISSSGARTYYADSVKGRFTISRDNAKNTVYLQMNSLKPEDTAVYYCNAPTQYRYYWGQGTQVTVSS | high polyreactivity |
| QVQLVESGGGLVQAGGSLRLSCAASGSNFYDYAMGWYRQAPGKERELVAAISSGGGTYYADSVKGRFTISRDNAKNTVYLQMNSLKPEDTAVYYCNADTYEWFSDFSEDSYDYWGQGTQVTVSS | low polyreactivity |
| QVQLVESGGGLVQAGGSLRLSCAAYGLTFCLNAMGWYRQAPGKERYLVAAIRYSGGGTYADSVKGRFTISRDNAMNTVYLQMISLKPEDTAVYYCAALYYLGYPQFDYWGQGTQVTVSS | low polyreactivity |
| QVQLVESGGGLVQAGGSLRLSCAASGRTFSVYAMGWYRQAPGKESELVAGITGNGGSTYYADSVKGRFTISRDNAKNTVYLQMNSLKPEDTAVYYCATAYWDIITRGEYGYWGQGTQVTVSS | low polyreactivity |
| QVQLVESGGGLVQAGGSLRLICAATGLIFPLYDMGWYRQAAGKERELVAAITLGGGGTYYADSVKGRFTISRDNAKNTVYLQMNSLKPEDTAVYYCNADYDIAAQLRTYITFDYWGQGTQVTVSS | low polyreactivity |
| QVQLVESGGGLVHAGGSLRLSCAASGYTFPLYAMGWYRQAPGKERELVADINIGGASTYYADSVKGRFTISRDNAKNTVYLQMNSLKPEDTAVYYCAKEYYDGYFPTFDYDYWGQGTQVTVSS | low polyreactivity |
| QVKLVESGGGVVQAGGSLSLSCAASGRIFGGNAMGWYRQAPGKERELVAAISRTGGSTYYADSVKGRFTISRDIAKNTVYLQMNSLKPEDTAVNYCNAVYRYAHPMEYWGQGTQVTVSS | high polyreactivity |
| QVQLVESGGGLVQAGGSLRLSCAAYGSTFWPYAKGWSRQAPGKERELVAAISSSGGSTYYADSVKGRFTISRDNAKHTVYLQMNSLIPEDTAVYYCNIDYHRPYGGGSKGDFWGQGTQVTVSS | low polyreactivity |
| QVQLVESGGGLVQAGGSLRLSCAASGGTFTFYAMGWYRQATGKEMELVATINWSGGSTYYADSVKGRFTISRDNAKNTVYLQMNSLKPEDTAVYYCNAAWPYKSVEYWGQGTQVTVSS | low polyreactivity |
| QVQLVESGGGLVQAGGSLRLSCAASGRTFSVYAMGWYRQAPGKERELVAAISGRGGRTYYADSVKGRFTISRDNAKNTVYLQMNSLKPEDTAVYYCTADVGVYHDDYWGQGTQVTVSS | high polyreactivity |
| QVQLVESGGGLVQAGGSLRLSCDASGYIFNYAMGWYRQAPGKERELVPAISRRGGSTYYADSVKGRFTISRDNAKNTVYLQMNSLKPEDTSVYYCAADRFRRLHYWTYDYWGKGTQVTVSS | high polyreactivity |
| QVQLVESGGGLVQAGGSLRLSCAASGNIFDSYGMGWYRQAPGKERELVATINTSSGSTYYADSVKGRFTISRDNAKNTVYIQMNSLKPEDTAVYYCAAEWYPYTWGYGYWGQGTQVTVSS | low polyreactivity |
| QVQLVESGGGLVQAGGSVRLSCAASGFTFWRYAMGWYRQAPGKEREFVAAITRSGVSTSNADSVKGRFTISRDNAKNTVYLQMNSLKPEDTAVYYCAALFYTSVPYPDYDYWGQGTQVTVSS | high polyreactivity |
| QVQLVESGGGLVQAGGSHRLSCAASGRIFGTYAMGWYRQAPGKDRELVAAISFSGGSTYYADSVKGRFTISRDNAKNTVYLQMNSLKPDDTAVYYGAAGYRTYYGYRYGYWGQGTQVTVSS | high polyreactivity |
| QVQLVESGGGLVQAGGSLRLSCAASGRIFGVYAMGWYRQAPGKERELVAAISFSGGRTYYADSVKGRFTISRDNAKNTVYLQMNSLKPEDTAVYYCSALGPYDWLWAGDYWGQGTQVTVSS | low polyreactivity |
| QDQLVESVGGLDQAGGSLRLSCAASGRIFVHNAMGWYRQAPGKEREFVAAISLRGGSTYYADSVKGRFTISRDNAKNTVYLQMNSLKTEDTAVYYCAAVPAHFYGFDYCGQGTQVTVSS | low polyreactivity |
| QVQLVESGGGLVQAGGSLRLSCAASGFIFTQYAMGWYRQAPGKERELVAGITSSGNTYYADSVKGRFTISRDNAKNPVYLQMNSLKPEDTAVYYCAARSASRRMDYWGQGTQVTVSS | high polyreactivity |
| QVQLVESGGGLVQAGGRLRLSCAASGSIFITYAMGWYRQAPGKEMELVAAIRDSGDRTYYADSVKGRFTISRDNAKNTVYLQMNSLKPEDTAVYYCNARWQEPLKYDYWGQGTQVTVSS | low polyreactivity |
| QVQLVESGGGLVQAGGSLRLSCAASGSTFYRNAMGWYRQAPGKEREFVADITLGGGSTYYADSVKGRFTISRDNAKNTVYLQMNSRKPEDTAVYYCAVDYWQLNYDYWGQGTQVTVSS | low polyreactivity |
| QVQLVESGGGLVQAGGSLRLSCAAAGSIFRGYAMGWYRQEPEKERELVADISRRGGSTYYADSVKGRFTISRDNAKNTVYLQMNSLKPEDTAVYYCAKDGTGAGTYDYWGQGTQVTVSS | low polyreactivity |

| Sequence | polyreactivity (PSR sort gate) |
| --- | --- |
| QVQLVESGGGLVQARGSLRLSCAASGSTLTRNTMGGYRQAPGKERELVAGITRSGSSTYYADSVKGRFTISRDNAKNTVYLQMNSLKPEDTAVYYCAAPYRYRQNLGYWGQGTQVTVSS | high polyreactivity |
| QVQLVESGGGLVQAGGSLRLSCAASGITFFYYAMGWYTQAPGKERELVAAISTSGGRTYYADSVKGRFTISRDNAKNTVYLQMHSLKPEDTAVYYCAARSRVQPAGPRYDYWGQGTQVTVSS | high polyreactivity |
| QVQLVESGGGLVQAGGSLRLSCAASGSILADYAMGWYRQAPGKERELVAGISSGGSTNYADSVKGRFTISRDNAKNTVYLQMNSLKPEDTAVYYCNADQDFLFIGYLFDYWGQGTQVTVSS | low polyreactivity |
| QVQLVESGGGLVQAGGSLRLSCAASGSILGSYAMGWYRQAPGKERELVAAISWNGARTYYADSVKGRFTISRDNAKNTVYLQMNSLKPEDTAVYYCARVRVGRTTFDYWGQGTQVTVSS | low polyreactivity |
| QVQLVESGGGLVQAGGSLRLSCAASGITFASNTMGCYIQAPGKERELVAAITRGDNTYYADSVKGRFTISRDNAKNTVYLQMNSLKAEDPAVYYCATEGYQIQYEHDYWGQGTQVTVSS | low polyreactivity |
| QVQLVESGGVLVQAGGSLRLSCAASGFTFLVYAMGWYRQAPGKERELLAAITSGSSTTYADSVKGRFTISRDNAKNTVYLQMNSLKPEDTAVYYCAARPRLDVLVKRFYYWGQGTQVTVSS | high polyreactivity |
| QVQLVESGGGLVQAGGSLRLSCAASGRTFPYNAMGWYRQAPGKERELVAAISYSGGRTYYADSVKGRFTISRDNAKNTFYLQMNSLKPEDTAVYYCNALGSGREDDYWGQGTQVTVSS | high polyreactivity |
| QVQLVESGGGLVQAGGSLRLSCAATGSTFVYYALGWYRPAPGKERELVAAITASGGGTYYADSVKGRFTISRDNAKNTVYLQMNSLKPEDTAVYYCNRGYDYWGQGTQVTGSS | low polyreactivity |
| QVQLVESVGGLVQAGGSLRLSCAASGIILLYYALGWYRQAPGKERELVAAITTSGGRTYYADSVKGRFTISRDNAKNTVYLQMNSLKPEDTAVYYCAASTQGTYYPYKRYDYWGQGTQVTVSS | high polyreactivity |
| QVQLVESGGGLVQAGGSLRLSCAASGRTTLLYAMGWYRQAPGKERELVATIRYTGGSTYADSVKGHFTISRDNAKNTVYLQMNILKPEDTAVYYCNARSYQYDGGHRYWGQGTQVTVSL | high polyreactivity |
| QVQLVESGGGLVQAGGSLRLSCAASGFIFWGNAMGWYRQAPGKERELVAAINYSGGRTYYSDSVKGRFTISRDNAKNTVYLQMNSLKPEDTAVYYCAATGPVNRASYDYWGQGTQVTVSS | high polyreactivity |
| QVQLVESGGGLVQAGGSLRLSCAASGGTLVPNAMGWYRPAPGKERELVAGISGSGGSTYYADSVKGRFTISRDNAKNTVYLQMNSLKPEDTAVYYCNADRYVPYYEPEMDYWGQGTQVTVSS | low polyreactivity |
| QVQLVESGGGLVQAGGSLRLSCAASGRTFAIYAMGWYRQAPGKERELVAGITIRGGRTYYADSVKGRFTISRYIAKNTVYLQMNSLKPEDTAVYYCNARGWYEYGWGQGTQVTVSS | high polyreactivity |
| QVHLVESGGGLVQAGGSLRLSCAASGFTIDYYAMAWYRQAPGKERELDAAISRAGSTNYADSVKGRFTISRDNAKNTVYLQMNSLKPEDTAVYYCNKGYHSWSRLSQFGWSYDYWGQGTQVTVSS | high polyreactivity |
| QVQLVESGGGLVQAGGSLRLSCAASGRIFTPYAMGWYRQAPGKEREFVATISFRGDSTYYADSVKGRFTISRDNAKNSVYLQMNSLKPEDTAVYYCAARQYGGYGYWGQGTQVTVSS | high polyreactivity |
| QVQLVESGGGLVQAGGSLRLSCAASGFTFGSNAMGWYRQAPGKEREFVAAISGSGDRTYYADSVKGRFTISRDNAKNTVYLQMNSLKPEDTAVYYCATSVRQNYFYSYDDWGQGTQVTVSS | high polyreactivity |
| QVQLHESGGGLVQAGGSLRLICAASGSISILQSMGWYRQAPGKERELVAGINWGATTYYADRVKGRLTTSRDYAKNTVYLQMNSLKPEATAVYYCAVPTYYTNPLLYWGQGTQVTVSS | low polyreactivity |
| QVQLVESGGGLVQAGGSLRLSCAASGLIFANNTMGWYRQAPGKERELVAAISATGDGNTYYADSVKGRFTISRDNAKNTVYLQMNSLKPEDTAVYYCNRLPQYALPYRHNGYWGQGTQVTVSS | low polyreactivity |
| QVQLVESGGGLVQAGGSLRLSCAASGLTFVDNAMGWYRQAPRKERELVAGITQSGGSTNYADSVKGRFTISRDNAKNTVYLQMNSLKPEDTAVYYCAKDTYRAYFRWEYGYWGQGTQVTVSS | low polyreactivity |
| QVQLVESGGGLVQAGGSLRLSCAASGGIFDTYAMGWYRQEPGKERELVAAISRRGGNTYYADSVKGRFTISRDNAKNTVYLQMNSLKPEDTAVYYCAAYYHGRMDYWGQGTQVTVSS | high polyreactivity |
| QVQLVESGGGLVQAGGSLRLSCAASGRIFGYYAMGWYRQAPGKERELVAAIRSSGGSTYYADSVKGRFTISRDNAKNTVYLQMNSLKPEDTAVYYCNKGAAWRPFFGPYYNYEYWGQGTQVTVSS | high polyreactivity |
